T1: Orai1 peptide (first extracellular domain) (UniProt Q96D31)
T1 chain: DADHDYPPGLL


Columns and labels:
[1] = target: Orai1 peptide (first extracellular domain) (UniProt Q96D31); assay: ELONA; details: 0.1 ug/well aptamer; lowest of six; value from stated range; SHCMK: 20 mM Hepes pH 7.35, 120 mM KCl, 1 mM CaCl2, 1 mM MgCl2; 37 C, 3 h (2 h for Kd); peptide-coated plates, wash with 0.05% Tween …
Target sequence in this assay (Q96D31 whole entry, looked up, the tested form may be a part): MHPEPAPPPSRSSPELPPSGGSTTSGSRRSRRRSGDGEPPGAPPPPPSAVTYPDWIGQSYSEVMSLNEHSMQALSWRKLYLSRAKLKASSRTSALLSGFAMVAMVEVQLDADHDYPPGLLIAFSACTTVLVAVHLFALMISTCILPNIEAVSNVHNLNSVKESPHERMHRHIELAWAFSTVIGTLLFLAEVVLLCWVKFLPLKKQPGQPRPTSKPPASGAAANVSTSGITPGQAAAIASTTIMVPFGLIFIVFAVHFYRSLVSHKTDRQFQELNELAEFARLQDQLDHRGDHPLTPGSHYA

[2] = target: T1, Orai1 peptide (first extracellular …); assay: ELONA; SHCMK: 20 mM Hepes pH 7.35, 120 mM KCl, 1 mM CaCl2, 1 mM MgCl2; 37 C, 3 h (2 h for Kd); peptide-coated plates, wash with 0.05% Tween 20; details: tags: none stated; coated on polystyrene plate; label: biotin

| Molecule | binding signal [1] [OD450] | binding result [2] |
| --- | --- | --- |
| TGCGAGCATCTCGCTATCAGAGTGAGGTGATTTGTGCATA [Aptamer Y8] | 1.18 | – |
| TAGGATCCCCAGACCTGCCCGCCATGT (ssDNA) [ONT2] | – | no binding |
| TCAAGCTTATGACCGAGCGCCGCGTGCC (ssDNA) [ONT1] | – | no binding |
| GGTACCGCAGAATTGGGAAGAGATAGA (ssDNA) [ONT3] | – | no binding |
